Data set [1] concerns the molecule itself. As to the kind of experiment: cross-linking.
For data set [2], the target named is T1, myo-inositol monophosphatase 1 (IMPA1), purified bovine brain (bovine, UniProt P20456 1-277).
T1 sequence (looked up): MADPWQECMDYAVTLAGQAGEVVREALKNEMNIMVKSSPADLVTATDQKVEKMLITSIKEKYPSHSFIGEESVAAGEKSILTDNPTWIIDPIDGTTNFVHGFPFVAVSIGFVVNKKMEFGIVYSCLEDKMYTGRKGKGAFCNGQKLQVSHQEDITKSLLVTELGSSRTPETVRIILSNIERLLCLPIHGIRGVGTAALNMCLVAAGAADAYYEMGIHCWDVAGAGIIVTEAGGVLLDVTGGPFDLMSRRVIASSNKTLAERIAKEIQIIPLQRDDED
As to the kind of experiment: cross-linking.

B1: S100B, purified bovine brain (natural protein, UniProt P02638 1-92, looked up)
chain: MSELEKAVVALIDVFHQYSGREGDKHKLKKSELKELINNELSHFLEEIKEQEVVDKVMETLDSDGDGECDFQEFMAFVAMITTACHEFFEHE
B1: the binding result in data set [1] and in data set [2] was “binds” throughout.
